From patent publication US20240010722A1 (published 2024)
Numbering of substitutions follows the chain as printed.

T1: human MAdCAM (human, UniProt Q13477 19-317, limits assumed)
T1 construct: also called huMAdCAM; human MAdCAM-1
T1 sequence (looked up): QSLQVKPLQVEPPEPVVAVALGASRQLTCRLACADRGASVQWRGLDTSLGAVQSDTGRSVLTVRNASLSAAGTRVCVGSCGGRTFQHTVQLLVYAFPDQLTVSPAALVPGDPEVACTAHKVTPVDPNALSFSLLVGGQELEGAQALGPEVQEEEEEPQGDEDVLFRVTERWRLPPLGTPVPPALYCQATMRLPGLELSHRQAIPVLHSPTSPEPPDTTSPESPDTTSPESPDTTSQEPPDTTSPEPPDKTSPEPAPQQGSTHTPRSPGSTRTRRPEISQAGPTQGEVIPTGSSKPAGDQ

T2: mouse MAdCAM (mouse, UniProt Q61826 22-365, limits assumed)
T2 construct: also called mouse MAdCAM-1; muMAdCAM
T2 sequence (looked up): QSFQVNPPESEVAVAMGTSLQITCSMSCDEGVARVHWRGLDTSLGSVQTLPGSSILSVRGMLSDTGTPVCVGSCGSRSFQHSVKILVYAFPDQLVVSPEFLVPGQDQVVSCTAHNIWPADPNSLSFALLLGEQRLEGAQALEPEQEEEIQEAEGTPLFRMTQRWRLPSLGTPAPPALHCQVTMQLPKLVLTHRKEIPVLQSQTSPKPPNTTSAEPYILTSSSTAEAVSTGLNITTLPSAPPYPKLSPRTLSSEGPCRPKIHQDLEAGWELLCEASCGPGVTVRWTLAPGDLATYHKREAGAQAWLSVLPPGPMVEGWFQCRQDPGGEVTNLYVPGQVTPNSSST

B1: PMAB15 (bispecific antibody, human IgG1, kappa)
heavy: EVQLLESGGGLVQPGGSLRLSCAASGFTFSSYDMSWVRQAPGKGLEWVSGITISGGSTYYADSVKGRFTISRDNSKNTLYLQMNSLRAEDTAVYYCARGRGGSGWLDYWGQGTLVTVSSASTKGPSVFPLAPSSKSTSGGTAALGCLVKDYFPEPVTVSWNSGALTSGVHTFPAVLQSSGLYSLSSVVTVPSSSLGTQTYICNVNHKPSNTKVDKKVEPKSCDKTHTCPPCPAPEAAGAPSVFLFPPKPKDTLMISRTPEVTCVVVDVSHEDPEVKFNWYVDGVEVHNAKTKPREEQYNSTYRVVSVLTVLHQDWLNGKEYKCKVSNKALPAPIEKTISKAKGQPREPQVYTLPPSREEMTKNQVSLTCLVKGFYPSDIAVEWESNGQPENNYKTTPPVLDSDGSFFLYSKLTVDKSRWQQGNVFSCSVMHEALHNHYTQKSLSLSPGGGGGSGGGGSGGGGSEVQLLESGGGLVQPGGSLRLSCAASGFTFSSYWMHWVRQAPGKGLEWVSAISGSGGSTYYADSVKGRFTISRDNSKNTLYLQMNSLRAEDTAVYYCARDRPYYYDMDVWGKGTTVTVSSGGGGSGGGGSGGGGSGGGGSDIQMTQSPSSLSASVGDRVTITCRASQSISSSLAWYQQKPGKAPKLLIYAASSLQSGVPSRFSGSGSGTDFTLTISSLQPEDFATYYCQQYKSYPVTFGQGTKVEIK
light: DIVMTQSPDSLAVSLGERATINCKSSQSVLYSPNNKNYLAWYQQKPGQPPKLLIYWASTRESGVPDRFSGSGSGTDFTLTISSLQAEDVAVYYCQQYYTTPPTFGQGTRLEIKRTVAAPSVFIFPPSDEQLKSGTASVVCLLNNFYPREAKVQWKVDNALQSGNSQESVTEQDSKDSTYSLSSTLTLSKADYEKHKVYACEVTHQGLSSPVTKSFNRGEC
B2: PMAB16 (bispecific antibody, human IgG1, kappa)
heavy: B1 heavy with A513Y, S520Y, Y522N
light: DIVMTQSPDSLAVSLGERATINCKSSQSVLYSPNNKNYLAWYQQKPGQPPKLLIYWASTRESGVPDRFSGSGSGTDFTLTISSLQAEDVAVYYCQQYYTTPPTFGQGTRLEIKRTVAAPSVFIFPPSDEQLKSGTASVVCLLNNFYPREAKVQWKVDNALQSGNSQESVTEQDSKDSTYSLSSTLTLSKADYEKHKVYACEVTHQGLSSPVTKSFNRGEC
B3: PMAB42 (bispecific antibody, human IgG1, kappa)
heavy: EVQLLESGGGLVQPGGSLRLSCAASGFTFSNSDMSWVRQAPGKGLEWVSGITISGGSTYYADSVKGRFTISRDNSKNTLYLQMNSLRAEDTAVYYCARGRGGSGWLDYWGQGTLVTVSSASTKGPSVFPLAPSSKSTSGGTAALGCLVKDYFPEPVTVSWNSGALTSGVHTFPAVLQSSGLYSLSSVVTVPSSSLGTQTYICNVNHKPSNTKVDKKVEPKSCDKTHTCPPCPAPEAAGAPSVFLFPPKPKDTLMISRTPEVTCVVVDVSHEDPEVKFNWYVDGVEVHNAKTKPREEQYNSTYRVVSVLTVLHQDWLNGKEYKCKVSNKALPAPIEKTISKAKGQPREPQVYTLPPSREEMTKNQVSLTCLVKGFYPSDIAVEWESNGQPENNYKTTPPVLDSDGSFFLYSKLTVDKSRWQQGNVFSCSVMHEALHNHYTQKSLSLSPGGGGGSGGGGSGGGGSEVQLLESGGGLVQPGGSLRLSCAASGFTFSDFWMHWVRQAPGKGLEWISYISGDSGYTNYADSVKGRFTISRDNSKNTLYLQMNSLRAEDTAVYYCARDRPYYYYMDVWGKGTTVTVSSGGGGSGGGGSGGGGSGGGGSDIQMTQSPSSLSASVGDRVTITCRASQSVSRSLAWYQQKPGKAPKLLIYAASSLQSGVPSRFSGSGSGTDFTLTISSLQPEDFATYYCQQYKSTPVTFGQGTKVEIK
light: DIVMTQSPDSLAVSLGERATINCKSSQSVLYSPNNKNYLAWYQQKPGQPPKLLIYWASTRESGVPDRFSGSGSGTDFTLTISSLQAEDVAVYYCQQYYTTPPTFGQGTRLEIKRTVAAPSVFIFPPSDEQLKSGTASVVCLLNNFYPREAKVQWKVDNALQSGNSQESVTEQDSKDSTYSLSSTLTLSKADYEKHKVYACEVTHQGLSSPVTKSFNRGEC
B4: PMAB53 (bispecific antibody, human IgG1, kappa)
heavy: B1 heavy with L114T, A513Y, S520Y, Y522N, M569I
light: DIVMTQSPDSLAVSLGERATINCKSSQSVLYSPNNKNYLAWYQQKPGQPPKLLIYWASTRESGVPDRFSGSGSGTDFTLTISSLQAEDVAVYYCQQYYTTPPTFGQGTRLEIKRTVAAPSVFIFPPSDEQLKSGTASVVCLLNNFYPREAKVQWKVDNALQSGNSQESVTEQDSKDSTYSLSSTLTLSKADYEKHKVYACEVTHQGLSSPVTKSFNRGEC
B5: PMAB56 (bispecific antibody, human IgG1, kappa)
heavy: B1 heavy with L114T, A513Y, S520Y, Y522N, M569L
light: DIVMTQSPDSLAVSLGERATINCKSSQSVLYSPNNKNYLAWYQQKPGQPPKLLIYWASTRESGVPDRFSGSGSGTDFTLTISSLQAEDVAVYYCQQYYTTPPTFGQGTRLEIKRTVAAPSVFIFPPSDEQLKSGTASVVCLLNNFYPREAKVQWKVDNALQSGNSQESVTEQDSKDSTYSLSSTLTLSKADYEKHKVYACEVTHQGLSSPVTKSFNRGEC
B6: PMAB17 (bispecific antibody, human IgG1, kappa)
heavy: B1 heavy with L114D, Y566G, D568Y
light: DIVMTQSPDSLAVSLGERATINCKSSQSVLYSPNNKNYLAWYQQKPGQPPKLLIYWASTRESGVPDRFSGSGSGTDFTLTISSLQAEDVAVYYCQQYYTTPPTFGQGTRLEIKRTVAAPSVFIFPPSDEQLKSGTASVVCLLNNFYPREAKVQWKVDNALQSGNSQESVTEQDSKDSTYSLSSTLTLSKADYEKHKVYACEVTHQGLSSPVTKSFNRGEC

Experiments:
human MAdCAM [1] = target: T1, human MAdCAM; assay: BLI (Octet)
mouse MAdCAM [2] = target: T2, mouse MAdCAM; assay: BLI (Octet)
mouse MAdCAM [3] = target: T2, mouse MAdCAM; assay: BLI (Octet), binder on AHC tips
Procedure, shortened: (§1)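 Kinetic rates and the dissociation constant come from a global one-to-one fit, performed in the Octet data analysis software, of binding measured on an Octet96 RED with anti-human IgG Fc biosensors. Test article at 10 μg/mL in assay buffer was captured on the tips for 240 s. MAdCAM-1, serially diluted over seven points from 200 nM down to 3.13 nM, then associated for 120 s before 120 s of dissociation in assay buffer.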

human MAdCAM [4] = target: T1, human MAdCAM; assay: BLI (Octet), binder on AHC tips
Procedure, shortened: as §1

cyno MAdCAM = target: T3, cyno MAdCAM (cynomolgus); assay: BLI (Octet)
T3 construct: also called cynomolgus MAdCAM

Binder	Kd (human MAdCAM [1])	koff (human MAdCAM [1])	kon (human MAdCAM [1])	response (human MAdCAM [1])	Kd (mouse MAdCAM [2])	koff (mouse MAdCAM [2])	kon (mouse MAdCAM [2])	response (mouse MAdCAM [2])	Kd (mouse MAdCAM [3])	koff (mouse MAdCAM [3])	kon (mouse MAdCAM [3])	response (mouse MAdCAM [3])	Kd (human MAdCAM [4])	koff (human MAdCAM [4])	kon (human MAdCAM [4])	Kd (cyno MAdCAM)	koff (cyno MAdCAM)	kon (cyno MAdCAM)
B1	73.1 nM	0.0839 s⁻¹	1.15e+06 M⁻¹ s⁻¹	0.0655	–	–	–	–	–	–	–	–	–	–	–	–	–	–
B2	134 nM	0.0631 s⁻¹	472000 M⁻¹ s⁻¹	0.186	334 nM	0.0828 s⁻¹	248000 M⁻¹ s⁻¹	0.0407	–	–	–	–	–	–	–	–	–	–
B3	–	–	–	–	–	–	–	–	105 nM	0.017 s⁻¹	162000 M⁻¹ s⁻¹	0.129	395 nM	0.114 s⁻¹	288000 M⁻¹ s⁻¹	–	–	–
B4	49.7 nM	0.000716 s⁻¹	14400 M⁻¹ s⁻¹	–	1740 nM	0.217 s⁻¹	125000 M⁻¹ s⁻¹	–	–	–	–	–	–	–	–	379 nM	0.0217 s⁻¹	57100 M⁻¹ s⁻¹
B5	208 nM	0.00491 s⁻¹	23600 M⁻¹ s⁻¹	–	161 nM	0.00147 s⁻¹	9120 M⁻¹ s⁻¹	–	–	–	–	–	–	–	–	96.5 nM	0.0591 s⁻¹	612000 M⁻¹ s⁻¹
B6	17.1 nM	0.0636 s⁻¹	3.73e+06 M⁻¹ s⁻¹	0.0416	–	–	–	–	–	–	–	–	–	–	–	–	–	–
